From the supplement of paper PMC9112550, “Optimization of the antimicrobial peptide Bac7 by deep mutational scanning” (BMC Biology, 2022)

Tested on: Escherichia coli TOP10
Assay: shrunken log2 fold change of peptide-encoding DNA abundance (4.5 h post-induction vs induction); higher = less antimicrobial activity (less host growth inhibition)
Conditions: time post-induction: 4.5 h; library: site-saturation at positions 5, 18, 19, 20
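Also: peptides expressed intracellularly from a pBAD plasmid library in pooled LB shake-flask culture, induced with 0.3% L-arabinose, DNA abundance read by NGS, three biological replicates, DESeq2 with apeglm shrinkage.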

Sequence	shrunken log2 fold change
RRIRVRPPRLPRPRPRPRQTPRP	-0.0375
RRIRFRPPRLPRPRPRPATSPRP	0.0918
RRIRVRPPRLPRPRPRPMHKPRP	-0.192
RRIRFRPPRLPRPRPRPQFSPRP	-0.401
RRIRPRPPRLPRPRPRPHVSPRP	0.00841
RRIRWRPPRLPRPRPRPVQIPRP	0.278
RRIRKRPPRLPRPRPRPMVTPRP	0.231
RRIRNRPPRLPRPRPRPWIDPRP	-0.0152
RRIRQRPPRLPRPRPRPERCPRP	0.00749
RRIRWRPPRLPRPRPRPQQGPRP	0.342
RRIRRRPPRLPRPRPRPQVCPRP	-0.175
RRIRNRPPRLPRPRPRPAKEPRP	0.0446
RRIRVRPPRLPRPRPRPRTKPRP	0.0796
RRIRRRPPRLPRPRPRPYMHPRP	-0.451
RRIRNRPPRLPRPRPRPREKPRP	0.377
RRIRRRPPRLPRPRPRPFIQPRP	-0.0404
RRIRYRPPRLPRPRPRPSMFPRP	-1.02
RRIRDRPPRLPRPRPRPRKRPRP	0.382
RRIRHRPPRLPRPRPRPVDSPRP	-0.175
RRIRLRPPRLPRPRPRPVSNPRP	-0.837
RRIRIRPPRLPRPRPRPYQPPRP	0.0299
RRIRDRPPRLPRPRPRPYADPRP	-0.155
RRIRYRPPRLPRPRPRPMKCPRP	-0.905

Sequence	shrunken log2 fold change
RRIRKRPPRLPRPRPRPVEDPRP	-0.000777
RRIRSRPPRLPRPRPRPQYIPRP	-0.206
RRIRPRPPRLPRPRPRPLAKPRP	0.261
RRIRKRPPRLPRPRPRPWVYPRP	0.107
RRIRLRPPRLPRPRPRPGSYPRP	0.186
RRIRHRPPRLPRPRPRPEKIPRP	0.0327
RRIRARPPRLPRPRPRPWEWPRP	0.0233
RRIRIRPPRLPRPRPRPNLCPRP	-0.0543
RRIRHRPPRLPRPRPRPMNWPRP	-0.209
RRIRQRPPRLPRPRPRPQSMPRP	-0.395
RRIRIRPPRLPRPRPRPWLCPRP	-0.121
RRIRMRPPRLPRPRPRPHTVPRP	-0.0708
RRIRARPPRLPRPRPRPYWDPRP	-0.964
RRIRRRPPRLPRPRPRPTMVPRP	0.283
RRIRIRPPRLPRPRPRPWSCPRP	0.0678
RRIRGRPPRLPRPRPRPMAPPRP	1.2
RRIRNRPPRLPRPRPRPQKCPRP	0.0748
RRIRMRPPRLPRPRPRPFTYPRP	-0.0802
RRIRNRPPRLPRPRPRPSIFPRP	-0.662
RRIRDRPPRLPRPRPRPESRPRP	0.0324
RRIRCRPPRLPRPRPRPLLQPRP	0.167
RRIRYRPPRLPRPRPRPMFRPRP	-0.296
RRIRIRPPRLPRPRPRPPRTPRP	0.195
